Laboratory results published in PMC13397619.

B1: NLV2 TCR alpha chain (CDR3α only) (parent)
chain: AGPMKTSYDKVI
partner: NLVGMVATV
B2: NLV2 TCR alpha chain (CDR3α only) (parent)
chain: AGPMKTSYDKVI
partner: MLVPMVATV

Variants of: B1
Experiment: T-Switch: Jurkat TCRβ−/− cells expressing a CDR3 saturation-mutagenesis library, stained with two peptide-HLA-A*02:01 tetramers (original and novel peptide) plus anti-CD3, FACS-sorted into four gates, gDNA sequenced
Conditions: with HLA-A*02:01 with peptide … (NLV 2-2, the original bait), tetramers 1 µg/mL, 30 min on ice, DP and SW gates expanded about 10 days between rounds ('two to three rounds of selection' in the Methods), gate SP: higher = more of the variant in the gate that binds the original peptide and not the novel one = retained original binding. Fold enrichment of the CDR3 variant in one FACS gate of a two-tetra, unresolved parent, parent is a CDR3 fragment, scale: fold enrichment, numbering: sequential-on-construct, sequence …

First: […] (CDR3 as printed); A1Y derived by comparing it with the table's wild-type CDR3 AGPMKTSYDKVI
Second: […] (CDR3 as printed); K5H derived by comparing it with the table's wild-type CDR3 AGPMKTSYDKVI
The enrichment of the first is lower: 0.416 for the first, 4.24 for the second.

[…] (CDR3 as printed); M4F derived by comparing it with the table's wild-type CDR3 AGPMKTSYDKVI and […] (CDR3 as printed); M4P derived by comparing it with the table's wild-type CDR3 AGPMKTSYDKVI are the same in enrichment: 0 for the first, 0 for the second.

[…] (CDR3 as printed); S7Y derived by comparing it with the table's wild-type CDR3 AGPMKTSYDKVI and […] (CDR3 as printed); Y8M derived by comparing it with the table's wild-type CDR3 AGPMKTSYDKVI are the same in enrichment: 0 for the first, 0 for the second.

[…] (CDR3 as printed); T6F derived by comparing it with the table's wild-type CDR3 AGPMKTSYDKVI and […] (CDR3 as printed); S7M derived by comparing it with the table's wild-type CDR3 AGPMKTSYDKVI are the same in enrichment: 0 for the first, 0 for the second.

[…] (CDR3 as printed); S7T derived by comparing it with the table's wild-type CDR3 AGPMKTSYDKVI and […] (CDR3 as printed); T6C derived by comparing it with the table's wild-type CDR3 AGPMKTSYDKVI are the same in enrichment: 0 for the first, 0 for the second.

Going from […] (CDR3 as printed); K5W derived by comparing it with the table's wild-type CDR3 AGPMKTSYDKVI to […] (CDR3 as printed); T6N derived by comparing it with the table's wild-type CDR3 AGPMKTSYDKVI, the enrichment falls from 5.12 to 0.

[…] (CDR3 as printed); K5R derived by comparing it with the table's wild-type CDR3 AGPMKTSYDKVI and […] (CDR3 as printed); K10F derived by comparing it with the table's wild-type CDR3 AGPMKTSYDKVI are the same in enrichment: 0 for the first, 0 for the second.

[…] (CDR3 as printed); V11C derived by comparing it with the table's wild-type CDR3 AGPMKTSYDKVI and […] (CDR3 as printed); D9F derived by comparing it with the table's wild-type CDR3 AGPMKTSYDKVI are the same in enrichment: 0 for the first, 0 for the second.

[…] (CDR3 as printed); T6M derived by comparing it with the table's wild-type CDR3 AGPMKTSYDKVI and […] (CDR3 as printed); V11G derived by comparing it with the table's wild-type CDR3 AGPMKTSYDKVI are the same in enrichment: 0 for the first, 0 for the second.

[…] (CDR3 as printed); D9L derived by comparing it with the table's wild-type CDR3 AGPMKTSYDKVI and […] (CDR3 as printed); I12S derived by comparing it with the table's wild-type CDR3 AGPMKTSYDKVI are the same in enrichment: 0 for the first, 0 for the second.

First: […] (CDR3 as printed); Y8H derived by comparing it with the table's wild-type CDR3 AGPMKTSYDKVI
Second: […] (CDR3 as printed); K5V derived by comparing it with the table's wild-type CDR3 AGPMKTSYDKVI
The enrichment of the first is lower: 0 for the first, 1.08 for the second.

[…] (CDR3 as printed); V11T derived by comparing it with the table's wild-type CDR3 AGPMKTSYDKVI and […] (CDR3 as printed); G2I derived by comparing it with the table's wild-type CDR3 AGPMKTSYDKVI are the same in enrichment: 0 for the first, 0 for the second.

Going from […] (CDR3 as printed); M4N derived by comparing it with the table's wild-type CDR3 AGPMKTSYDKVI to […] (CDR3 as printed); P3V derived by comparing it with the table's wild-type CDR3 AGPMKTSYDKVI, the enrichment rises from 0 to 0.124.

Compared with […] (CDR3 as printed); G2V derived by comparing it with the table's wild-type CDR3 AGPMKTSYDKVI, […] (CDR3 as printed); A1N derived by comparing it with the table's wild-type CDR3 AGPMKTSYDKVI is higher in enrichment: 0 for the first, 0.476 for the second.

Compared with […] (CDR3 as printed); A1F derived by comparing it with the table's wild-type CDR3 AGPMKTSYDKVI, […] (CDR3 as printed); K10M derived by comparing it with the table's wild-type CDR3 AGPMKTSYDKVI is lower in enrichment: 2.07 for the first, 0 for the second.

[…] (CDR3 as printed); Y8Q derived by comparing it with the table's wild-type CDR3 AGPMKTSYDKVI and […] (CDR3 as printed); V11P derived by comparing it with the table's wild-type CDR3 AGPMKTSYDKVI are the same in enrichment: 0 for the first, 0 for the second.

[…] (CDR3 as printed); G2R derived by comparing it with the table's wild-type CDR3 AGPMKTSYDKVI and […] (CDR3 as printed); S7D derived by comparing it with the table's wild-type CDR3 AGPMKTSYDKVI are the same in enrichment: 0 for the first, 0 for the second.

[…] (CDR3 as printed); S7L derived by comparing it with the table's wild-type CDR3 AGPMKTSYDKVI and […] (CDR3 as printed); K5N derived by comparing it with the table's wild-type CDR3 AGPMKTSYDKVI are the same in enrichment: 0 for the first, 0 for the second.

[…] (CDR3 as printed); P3Y derived by comparing it with the table's wild-type CDR3 AGPMKTSYDKVI and […] (CDR3 as printed); V11H derived by comparing it with the table's wild-type CDR3 AGPMKTSYDKVI are the same in enrichment: 0 for the first, 0 for the second.

[…] (CDR3 as printed); G2Y derived by comparing it with the table's wild-type CDR3 AGPMKTSYDKVI and […] (CDR3 as printed); V11F derived by comparing it with the table's wild-type CDR3 AGPMKTSYDKVI are the same in enrichment: 0 for the first, 0 for the second.

Going from […] (CDR3 as printed); P3N derived by comparing it with the table's wild-type CDR3 AGPMKTSYDKVI to […] (CDR3 as printed); K10P derived by comparing it with the table's wild-type CDR3 AGPMKTSYDKVI, the enrichment falls from 0.173 to 0.

First: […] (CDR3 as printed); I12Y derived by comparing it with the table's wild-type CDR3 AGPMKTSYDKVI
Second: […] (CDR3 as printed); Y8E derived by comparing it with the table's wild-type CDR3 AGPMKTSYDKVI
The enrichment of the first is lower: 0 for the first, 0.105 for the second.

[…] (CDR3 as printed); G2H derived by comparing it with the table's wild-type CDR3 AGPMKTSYDKVI and […] (CDR3 as printed); P3H derived by comparing it with the table's wild-type CDR3 AGPMKTSYDKVI are the same in enrichment: 0 for the first, 0 for the second.

[…] (CDR3 as printed); A1K derived by comparing it with the table's wild-type CDR3 AGPMKTSYDKVI and […] (CDR3 as printed); M4L derived by comparing it with the table's wild-type CDR3 AGPMKTSYDKVI are the same in enrichment: 0 for the first, 0 for the second.

Variants of: B2
Experiment: as above
Conditions: with HLA-A*02:01 with peptide … (NLV 3-1, the novel peptide), tetramers 1 µg/mL, 30 min on ice, SP, DP and SW gates expanded about 10 days between rounds ('two to three rounds of selection' in the Methods), gate SW: higher = more of the variant in the gate that binds the novel peptide and not the original one = switched binding. Fold enrichment of the CDR3 variant in one FACS gate of a two-tetramer stain, unresolved parent, parent is a CDR3 fragment, scale: fold enrichment, numbering: sequential-on-construct, sequence starts at 1

[…] (CDR3 as printed); A1W derived by comparing it with the table's wild-type CDR3 AGPMKTSYDKVI and […] (CDR3 as printed); K5I derived by comparing it with the table's wild-type CDR3 AGPMKTSYDKVI are the same in enrichment: 0 for the first, 0 for the second.

[…] (CDR3 as printed); D9W derived by comparing it with the table's wild-type CDR3 AGPMKTSYDKVI and […] (CDR3 as printed); I12E derived by comparing it with the table's wild-type CDR3 AGPMKTSYDKVI are the same in enrichment: 0 for the first, 0 for the second.

[…] (CDR3 as printed); A1R derived by comparing it with the table's wild-type CDR3 AGPMKTSYDKVI and […] (CDR3 as printed); D9N derived by comparing it with the table's wild-type CDR3 AGPMKTSYDKVI are the same in enrichment: 0 for the first, 0 for the second.

[…] (CDR3 as printed); D9F derived by comparing it with the table's wild-type CDR3 AGPMKTSYDKVI and […] (CDR3 as printed); D9L derived by comparing it with the table's wild-type CDR3 AGPMKTSYDKVI are the same in enrichment: 0 for the first, 0 for the second.

[…] (CDR3 as printed); I12M derived by comparing it with the table's wild-type CDR3 AGPMKTSYDKVI and […] (CDR3 as printed); K10A derived by comparing it with the table's wild-type CDR3 AGPMKTSYDKVI are the same in enrichment: 0 for the first, 0 for the second.

[…] (CDR3 as printed); G2P derived by comparing it with the table's wild-type CDR3 AGPMKTSYDKVI and […] (CDR3 as printed); D9M derived by comparing it with the table's wild-type CDR3 AGPMKTSYDKVI are the same in enrichment: 0 for the first, 0 for the second.

[…] (CDR3 as printed); K10W derived by comparing it with the table's wild-type CDR3 AGPMKTSYDKVI and […] (CDR3 as printed); K5Q derived by comparing it with the table's wild-type CDR3 AGPMKTSYDKVI are the same in enrichment: 0 for the first, 0 for the second.

[…] (CDR3 as printed); G2Y derived by comparing it with the table's wild-type CDR3 AGPMKTSYDKVI and […] (CDR3 as printed); K10G derived by comparing it with the table's wild-type CDR3 AGPMKTSYDKVI are the same in enrichment: 0 for the first, 0 for the second.

[…] (CDR3 as printed); K5Y derived by comparing it with the table's wild-type CDR3 AGPMKTSYDKVI and […] (CDR3 as printed); K5W derived by comparing it with the table's wild-type CDR3 AGPMKTSYDKVI are the same in enrichment: 0 for the first, 0 for the second.

[…] (CDR3 as printed); K10L derived by comparing it with the table's wild-type CDR3 AGPMKTSYDKVI and […] (CDR3 as printed); I12Q derived by comparing it with the table's wild-type CDR3 AGPMKTSYDKVI are the same in enrichment: 0 for the first, 0 for the second.

Compared with […] (CDR3 as printed); I12V derived by comparing it with the table's wild-type CDR3 AGPMKTSYDKVI, […] (CDR3 as printed); K10S derived by comparing it with the table's wild-type CDR3 AGPMKTSYDKVI is higher in enrichment: 0 for the first, 1.59 for the second.

First: […] (CDR3 as printed); D9E derived by comparing it with the table's wild-type CDR3 AGPMKTSYDKVI
Second: […] (CDR3 as printed); K10E derived by comparing it with the table's wild-type CDR3 AGPMKTSYDKVI
The enrichment of the first is lower: 0 for the first, 0.402 for the second.

[…] (CDR3 as printed); K10H derived by comparing it with the table's wild-type CDR3 AGPMKTSYDKVI and […] (CDR3 as printed); M4C derived by comparing it with the table's wild-type CDR3 AGPMKTSYDKVI are the same in enrichment: 0 for the first, 0 for the second.

[…] (CDR3 as printed); I12W derived by comparing it with the table's wild-type CDR3 AGPMKTSYDKVI and […] (CDR3 as printed); D9P derived by comparing it with the table's wild-type CDR3 AGPMKTSYDKVI are the same in enrichment: 0 for the first, 0 for the second.

[…] (CDR3 as printed); K5P derived by comparing it with the table's wild-type CDR3 AGPMKTSYDKVI and […] (CDR3 as printed); K5C derived by comparing it with the table's wild-type CDR3 AGPMKTSYDKVI are the same in enrichment: 0 for the first, 0 for the second.

[…] (CDR3 as printed); K5A derived by comparing it with the table's wild-type CDR3 AGPMKTSYDKVI and […] (CDR3 as printed); I12Y derived by comparing it with the table's wild-type CDR3 AGPMKTSYDKVI are the same in enrichment: 0 for the first, 0 for the second.

[…] (CDR3 as printed); I12R derived by comparing it with the table's wild-type CDR3 AGPMKTSYDKVI and […] (CDR3 as printed); A1N derived by comparing it with the table's wild-type CDR3 AGPMKTSYDKVI are the same in enrichment: 0 for the first, 0 for the second.

[…] (CDR3 as printed); A1L derived by comparing it with the table's wild-type CDR3 AGPMKTSYDKVI was tested, and the enrichment was 0.
